Read-outs that look alike come from different tables or passages of the source.
Columns and labels:
[1] = 10 U SC; Howey et al.; cited from earlier work
[2] = simulation of the previous study by Rüppel et al.; cited from earlier work
[3] = cited from earlier work
[4] = test system: persons with type 1 diabetes mellitus; test: Euglycemic clamp pharmacodynamics; type: in vivo, human
[5] = Serum insulin pharmacokinetics during euglycemic clamp; type: in vivo, human
[6] = across doses, TI inhaled, LIS SC
[7] = mean (SD) of n = 5 PK profiles selected for comparable AUClast, SD

| Substance | MRT [1] [h] | ED50, Emax model of predicted GIR AUC vs D [2] [U] | Time to maximum concentration (Cmax) of insulin ([3]; IV, after the start of administration) [min] | Time to maximum concentration (Cmax) of insulin ([3]; SC, after administration) [min] | Geometric mean dose-normalized effect, GIR AUC/D [4, 6] [mg/kg/U] | γ, model of GIRmax vs Cmax (common value) ([4]; common to TI and LIS, estimate (standard error), SEM) | Total effect (GIR AUC) at comparable low insulin exposure ([4]; n = 5 profiles per treatment, AUClast about 6537 min∙µU/mL) [mg/kg] | Exponent of dose dependence of tGIRend (tGIRend ~ D^x) ([4]; power-law fit, log-transformed variables) | Insulin exposure estimated from the linear regression equations ([5]; 10-U dose of LIS SC, regression equations in the ESM) [min µU/mL] | Geometric mean dose-normalized insulin exposure (AUClast/D) across doses [5, 6] [min·µU/mL/U] | Estimated MRT at the same insulin exposure ([5]; insulin exposure of 8152 min µU/mL, regression equations) [h] | AUClast of profiles at the high end of the common exposure range [5, 7] | AUClast of profiles at the low end of the common exposure range [5, 7] |
| --- | --- | --- | --- | --- | --- | --- | --- | --- | --- | --- | --- | --- | --- |
| RHI: regular human insulin, given intravenously or subcutaneously in cited studies | 3.92 | 48 | 5 | 121 | – | – | – | – | – | – | – | – | – |
| [Lys(B28), Pro(B29)]-human insulin [LIS] | 1.68 | – | – | – | 66.2 | 1.37 (0.19) | 899 | ~0.282 | 8152 | 883 | 1.97 | 61,371 (9082) min∙µU/mL | 6538 (65) min∙µU/mL |

Source: article PMC8891188 (Clinical Pharmacokinetics, 2021)
